Eleven molecules from publication PMC10902354, “Deficiency in PHD2-mediated hydroxylation of HIF2α underlies Pacak-Zhuang syndrome” (Communications Biology, 2024) can be followed below.

Peptide text beside a SMILES is read from it.

Test [1] has as its target T1, PHD2 (prolyl-hydroxylase domain, residues 181–426) (Homo sapiens, UniProt Q9GZT9).
T1 construct: encodes for His6-PHD2 (prolyl-hydroxylase domain, residues 181–426); His6 (N, cleaved yes); made in house; host or cells: E. coli BL21(DE3)
Put plainly: Microscale thermophoresis (MST) binding of HIFα-CODD peptides to the catalytic domain of PHD2. Conditions: MST; for PHD2 affinity / Kd compared with another peptide (in words): with NOG; for Kd relative to WT HIF2α-CODD: fold of the HIF2α WT Kd; for Kd (MST-determined PHD2/HIFα-CODD complex dissociation constant): 25 nM Alexa 647-labeled PHD2, Tris–HCl with NOG (1 mM NOG, 10 µM FeSO4, 5 mg/ml BSA in 2x MST Buffer pH 7.5), peptide in Tris pH 8.0, room temperature, 10 min incubation, 1:1 Kd model, triplicate measurements, highest concentration omitted for Y532H and P531A (aggregation); for Kd (Fit Results, Fit Model Kd): target WT-PHD2(181-426), TargetConcentration 2.5e-8, ligand HIF2a-CODD peptide, MST-Power Medium, Excitation-Power 20 Nano - RED, hot region 19 to 20, unit of Kd not printed (doses of the same sheet are in M), Fig. 1c source data. The procedure:
To determine if there is a direct effect of HIF2α mutations on PHD2 binding, we devised a quantitative method for determining the dissociation constant (Kd) of the HIF2α-CODD peptides and the catalytic domain of PHD2 using microscale thermophoresis (MST)[13],[14] in the presence of the PHD inhibitor n-oxalylglycine (NOG) to inhibit reaction turnover.
PHD2 was purified via a previously described but modified procedure[4],[30]. […] Cells were grown to an OD600 of 0.8 at 37 °C and expression of His6-PHD2 was induced with a final concentration of 0.5 mM IPTG. Cells were grown for an additional 3 h post-induction at 37 °C and harvested via centrifugation. Cell pellets were either used immediately for purification or stored at −80 °C for later use. Cell pellets were resuspended in Lysis Buffer (50 mM Tris–HCl pH 7.9, 500 mM NaCl, 5 mM Imidazole) containing 1x SigmaFast protease inhibitor cocktail (Sigma-Aldrich) and lysed with 3 passes through an Emulsiflex-C3 cell disruptor (Avestin) at 20-30 kPSI. […] Clarified lysates were applied to a 2 ml Ni-NTA (Thermo Scientific) column pre-equilibrated with Lysis Buffer. The beads were washed with 10 ml Lysis buffer and 2 × 30 ml of Wash Buffer (50 mM Tris–HCl pH 7.9, 500 mM NaCl, 30 mM Imidazole). His6-PHD2 was eluted by applying 10 ml Elution Buffer (50 mM Tris–HCl pH 7.9, 500 mM NaCl, 1 M Imidazole) to the column. Ni-NTA purified His6-PHD2 was dialyzed using a 10 kDa cut-off dialysis membrane against 2 L of Dialysis Buffer (50 mM Tris–HCl pH 7.5) for 4 h at 4 °C. […] Dialysis and thrombin cleavage were allowed to continue overnight at 4 °C. Thrombin-cleaved PHD2 was collected and applied to a 2 ml Ni-NTA column pre-equilibrated with Dialysis Buffer to remove uncleaved protein and cleaved His6 tags. The flow-through was collected and the beads were washed with 10 ml of Dialysis Buffer supplemented with 5 mM imidazole. The 5 mM imidazole eluate was pooled with the flow through and concentrated with an Amicon 10 kDa cut-off centrifugal concentrator (Millipore) to a volume of ~600 µl. The concentrated PHD2 was then applied to a Superdex 75 Increase 10/300 GL column (Cytiva) equilibrated with Dialysis Buffer or Labeling Buffer (50 mM HEPES pH 7.5, 150 mM NaCl) depending on the intended use of the sample. Eluted fractions containing PHD2 were collected and pooled. For the His6-PHD2 used in the indirect hydroxylation assay, no thrombin was added during dialysis steps therefore the His6-tag was not removed and the subsequent passage of the sample through Ni-NTA beads to remove His6-tags was not performed. Otherwise, the purification protocol for His6-PHD2 is the same as thrombin-cleaved PHD2. All purification steps were analyzed by SDS–PAGE and the Superdex 75 Increase chromatogram was used to assess size and aggregation, see Supplementary Fig. 5 for a representative purification assessment.
Labeling was conducted at room temperature for 1 h in the dark. Excess dye was then removed first by the passage of the sample through a PD-10 desalting column containing Sephadex G-25 resin (Cytiva) equilibrated with Dialysis Buffer and then any remaining excess dye was removed via repeated 10-fold dilution in Dialysis Buffer and subsequent concentration in an Amicon 10 kDa cut off centrifugal filter until the dye could no longer be detected in the concentrator flow through by Absorbance at 650 nm.
MST measurements were taken using a Monolith NT.115 (Nanotemper Technologies) at room temperature using standard MST capillaries (Nanotemper Technologies). […] For each HIFα-CODD peptide, ~1 mg dry weight of peptide was dissolved in 200 µl of 50 mM Tris–HCl pH 8.0 and concentrations were measured using UV absorbance at 280 nm for most peptides and BCA assay (Thermo Scientific) for Y532C and Y532H peptides using known concentrations of the WT HIF2α-CODD peptide to create a standard curve.

The target of test [2] is T2, Alexa 647 labeled PHD2 (catalytic / prolyl-hydroxylase domain, residues 181-426) (human, UniProt Q9GZT9 181-426, Alexa Fluor 647 N-hydroxysuccinimide ester dye, 1-2 dye molecules per protein molecule).
T2 construct: PHD2, prolyl-hydroxylase domain (catalytic domain), residues 181-426, from pET-46-HIS6-PHD2; Same construct as m2, dye-labeled for MST; also called PHD2-647; source: E. coli BL21(DE3), purified (Ni-NTA, thrombin cleavage, Superdex 75), labeled with Alexa Fluor 647 NHS ester
T2 sequence (Q9GZT9 181-426): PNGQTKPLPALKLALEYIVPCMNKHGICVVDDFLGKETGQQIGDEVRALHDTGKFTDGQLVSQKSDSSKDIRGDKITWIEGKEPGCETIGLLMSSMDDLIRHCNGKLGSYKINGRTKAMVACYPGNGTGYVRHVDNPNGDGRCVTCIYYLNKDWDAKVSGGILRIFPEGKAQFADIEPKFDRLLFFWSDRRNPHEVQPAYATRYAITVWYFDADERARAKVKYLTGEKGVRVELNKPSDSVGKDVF
Nature of the test: MST; 25 nM Alexa 647 labeled PHD2, unlabeled peptide in 16 two-fold dilutions; room temperature; MST Buffer 50 mM Tris-HCl pH 7.5, 1 mM NOG, 10 µM FeSO4, 5 mg/ml BSA mixed 1:1 with peptide in 50 mM Tris-HCl pH 8.0; 1:1 Kd model; triplicate. To be noted: both partners purified.

T1 sequence (Q9GZT9 181-426): as above

In the case of `CC[C@H](C)[C@H](NC(=O)[C@H](Cc1ccc(O)cc1)NC(=O)[C@@H]1CCCN1C(=O)[C@@H](NC(=O)[C@H](CC(C)C)NC(=O)[C@@H](NC(=O)[C@H](CCC(=O)O)NC(=O)[C@H](CC(C)C)NC(=O)[C@H](CC(=O)O)NC(=O)[C@H](CC(C)C)NC(=O)[C@H](CCC(=O)O)NC(C)=O)[C@@H](C)O)[C@@H](C)O)C(=O)N1CCC[C@H]1C(=O)N[C@@H](CCSC)C(=O)N[C@@H](CC(=O)O)C(=O)NCC(=O)N[C@@H](CCC(=O)O)C(=O)N[C@@H](CC(=O)O)C(=O)N[C@@H](Cc1ccccc1)C(=O)N[C@@H](CCC(N)=O)C(=O)N[C@@H](CC(C)C)C(N)=O` [HIF2α A530T], in test [1], the “PHD2 affinity / Kd compared with another peptide (in words)” value is “significant effect on PHD2 binding affinity”.

Regarding `CC[C@H](C)[C@H](NC(=O)[C@H](Cc1ccc(O)cc1)NC(=O)[C@@H]1CCCN1C(=O)[C@H](C)NC(=O)[C@H](CC(C)C)NC(=O)[C@@H](NC(=O)[C@H](CCC(=O)O)NC(=O)[C@H](CC(C)C)NC(=O)[C@H](CC(=O)O)NC(=O)[C@H](CC(C)C)NC(=O)[C@H](CCC(=O)O)NC(C)=O)[C@@H](C)O)C(=O)N1CCC[C@H]1C(=O)N[C@@H](CCSC)C(=O)N[C@@H](CC(=O)O)C(=O)N[C@@H](Cc1c[nH]c2ccccc12)C(=O)N[C@@H](CCC(=O)O)C(=O)N[C@@H](CC(=O)O)C(=O)N[C@@H](Cc1ccccc1)C(=O)N[C@@H](CCC(N)=O)C(=O)N[C@@H](CC(C)C)C(N)=O` [HIF2α G537W] (Ac-ELDLETLAPYIPMDWEDFQL-NH2), in test [1], the “Kd relative to WT HIF2α-CODD” value is on record as 2.4 × WT.

Consider `CC[C@H](C)[C@H](NC(=O)[C@H](Cc1ccc(O)cc1)NC(=O)[C@@H]1CCCN1C(=O)[C@H](C)NC(=O)[C@H](CC(C)C)NC(=O)[C@H](CCSC)NC(=O)[C@H](CCC(=O)O)NC(=O)[C@H](CC(C)C)NC(=O)[C@H](CC(=O)O)NC(=O)[C@H](CC(C)C)NC(=O)[C@H](CCC(=O)O)NC(C)=O)C(=O)N1CCC[C@H]1C(=O)N[C@@H](CCSC)C(=O)N[C@@H](CC(=O)O)C(=O)NCC(=O)N[C@@H](CCC(=O)O)C(=O)N[C@@H](CC(=O)O)C(=O)N[C@@H](Cc1ccccc1)C(=O)N[C@@H](CCC(N)=O)C(=O)N[C@@H](CC(C)C)C(N)=O` [HIF2α T528M] (Ac-ELDLEMLAPYIPMDGEDFQL-NH2), for which, in test [1], the “PHD2 affinity / Kd compared with another peptide (in words)” value is listed as “intermediate affinity”.

As for `CC[C@H](C)[C@H](NC(=O)[C@H](Cc1c[nH]cn1)NC(=O)[C@@H]1CCCN1C(=O)[C@H](C)NC(=O)[C@H](CC(C)C)NC(=O)[C@@H](NC(=O)[C@H](CCC(=O)O)NC(=O)[C@H](CC(C)C)NC(=O)[C@H](CC(=O)O)NC(=O)[C@H](CC(C)C)NC(=O)[C@H](CCC(=O)O)NC(C)=O)[C@@H](C)O)C(=O)N1CCC[C@H]1C(=O)N[C@@H](CCSC)C(=O)N[C@@H](CC(=O)O)C(=O)NCC(=O)N[C@@H](CCC(=O)O)C(=O)N[C@@H](CC(=O)O)C(=O)N[C@@H](Cc1ccccc1)C(=O)N[C@@H](CCC(N)=O)C(=O)N[C@@H](CC(C)C)C(N)=O` [HIF2α Y532H] (Ac-ELDLETLAPHIPMDGEDFQL-NH2), in test [1], the “PHD2 affinity / Kd compared with another peptide (in words)” value is “near wild-type affinity” and the “Kd relative to WT HIF2α-CODD” value is 1.2 × WT.

Turning to “HIF2α L529P: Class 1 mutant HIF2α-CODD peptide (Ac-ELDLETPAPYIPMDGEDFQL-NH2)”, in test [1], the “Kd (MST-determined PHD2/HIFα-CODD complex dissociation constant)” value was “No binding” and the “Kd (Fit Results, Fit Model Kd)” value was determined as 0.01043.

For the molecule “HIF2α P531L: Class 1 mutant HIF2α-CODD peptide (Ac-ELDLETLALYIPMDGEDFQL-NH2)”, the “Kd (MST-determined PHD2/HIFα-CODD complex dissociation constant)” value in test [1] is “No binding”.

As for “HIF2α P531S: Class 1 mutant HIF2α-CODD peptide (Ac-ELDLETLASYIPMDGEDFQL-NH2)”, in test [1], the “Kd (MST-determined PHD2/HIFα-CODD complex dissociation constant)” value is recorded as “No binding” and the “Kd (Fit Results, Fit Model Kd)” value was 0.01316.

For the molecule “HIF2α Y532C: Class 1 mutant HIF2α-CODD peptide (Ac-ELDLETLAPCIPMDGEDFQL-NH2)”, the “PHD2 affinity / Kd compared with another peptide (in words)” value in test [1] is reported as “strongly detrimental to the interaction of PHD2 with HIF2α-CODD”.

B1: HIF2α-CODD A530T peptide (peptide, UniProt Q99814 523-542, looked up)
peptide: Ac-ELDLETLTPYIPMDGEDFQL-NH2
notes: HIF2α (EPAS1) CODD peptide, human, as m3 with the disease mutation A530T (Class 1); also called HIF2α A530T; source: synthetic peptide (Genscript, ≥95% purity)
Take B1: the Kd – broadly, the concentration at which binding is half-saturated – in test [2] amounted to 627 ± 126 µM.

B2: HIF2α-CODD G537W peptide (peptide, UniProt Q99814 523-542, looked up)
peptide: Ac-ELDLETLAPYIPMDWEDFQL-NH2
notes: HIF2α (EPAS1) CODD peptide, human, as m3 with the disease mutation G537W (Class 2); also called HIF2α G537W; source: synthetic peptide (Genscript, ≥95% purity)
The molecule B2 showed a Kd in test [2] of 83 ± 9 µM.

B3: HIF2α-CODD T528M peptide (peptide, UniProt Q99814 523-542, looked up)
peptide: Ac-ELDLEMLAPYIPMDGEDFQL-NH2
notes: HIF2α (EPAS1) CODD peptide, human, as m3 with T528M; also called HIF2α T528M; source: synthetic peptide (Genscript, ≥95% purity)
As to B3, the Kd in test [2] is 23 ± 2 µM.
